This is an account of results in patent US20250340658A1 (TWIST BIOSCIENCE, published 2025).

Assay [1] deals with T1, full length human GLP-1R with N-terminal FLAG tag and C-terminal GFP tag, on CHO cells (human, UniProt P43220 24-463).
T1 construct: whole, on cells; the cell line itself is tied to UniProt P43220; also called FLAG-GLP-1R-GFP; CHO-GLP-1R
Kind of assay: flow cytometry titration, CHO GLP1R cells. The procedure:
(§1) GLP-1R IgG clones were tested in a binding assay coupled to flow cytometry analysis as follows: FLAG-GLP-1R-GFP expressing CHO cells (CHO-GLP-1R) and CHO-parent cells were incubated with 100 nM IgG for 1 h on ice, washed three times and incubated with Alexa 647 conjugated goat-anti-human antibody (1:200) (Jackson ImmunoResearch Laboratories, 109-605-044) for 30 min on ice, followed by three washes, centrifuging to pellet the cells between each washing step. All incubations and washes were in buffer containing PBS+1% BSA. […] Cells were analyzed by flow cytometry and hits (a hit is an IgG that specifically binds to CHO-GLP-1R) were identified by measuring the GFP signal against the Alexa 647 signal. Flow cytometry data of binding assays with 100 nM IgG are presented as dot plots. Analyses of binding assays with IgG titrations are presented as binding curves plotting IgG concentrations against MFI (mean fluorescence intensity).

Assay [2] deals with T1, full length human GLP-1R with …. Kind of assay: flow cytometry, GLP1R-expressing CHO cells. The method, then:
as §1

The target is the same in assay [3]. Kind of assay: flow cytometry, expressing vs parent CHO cells. The procedure:
as §1
In general terms: In flow cytometry, cells or beads pass a laser one at a time.

Assay [4] has the same target. Kind of assay: flow cytometry, expressing vs parent CHO cells. The method, then: as §1
This is another data set of the same source.

For assay [5] the target is unchanged. Kind of assay: flow cytometry, expressing minus parent CHO cells. The procedure:
as §1

The target is the same in assay [6]. Kind of assay: flow cytometry titration, CHO GLP1R cells. The procedure:
as §1
This is another data set of the same source.

Assay [7] has the same target. Kind of assay: flow cytometry, GLP1R-expressing CHO cells. The procedure: as §1
The source holds these as a separate data set.

Assay [8] has the same target. Kind of assay: flow cytometry, expressing vs parent CHO cells. The method, then:
as §1
The source holds these as a separate data set.

For assay [9] the target is unchanged. Kind of assay: flow cytometry, expressing vs parent CHO cells. The procedure:
as §1
This is another data set of the same source.

For assay [10] the target is unchanged. Kind of assay: flow cytometry, expressing minus parent CHO cells. The procedure: as §1
This is another data set of the same source.

Changes are numbered by the printed parent chain. Like-named read-outs stand apart in the source and are kept apart here.

B1: GLP1R-221-065 (antibody, V domains shown)
VH: QVQLVESGGGVVQPGRSLRLSCAASGFTFNNYAMHWVRQAPGKGLEWVAVISYDRSNEYYADSVKGRFTISRDNSKNTLYLQMNSLRAEDTAVYYCAKHMSMQEGAVTGDGQAAKEFIAWLVKGRVRADLVGDAFDVWGQGTLVTVSS
VL: QSVLTQPPSVSAAPGQKVTISCSGTTSNIANNFVSWYQQLPGTAPKLLIYDHNKRPSGIPDRFSGSKSGTSATLGITGLQTGDEADYYCGTWDTSLSAGAFGGGTKLTVL
notes: IgG
As for B1, in [1], the Bmax amounted to 798000. Further, in assay [2], the “Median RL1-H of Expressing Singlets” value was 273000. For the same molecule, the “MFI Ratio” value came to 915 in assay [3] and 914 in assay [4]. For the same molecule, the Subtraction in assay [5] came out at 272000.

B2: GLP1R-222-056 (antibody, V domains shown)
VH: B1 VH with T28P, N30S, N31S, E58K, D110Y, R125F
VL: QSVLTQPPSVSAAPGQKVTISCSGSSSNIGSNYISWYQQLPGTAPKLLIYDNDKRPAGIPDRFSGSKSGTSATLGITGLQTGDEADYYCGTWDTSLSVGEFGGGTKLTVL
notes: IgG
The term EC50 denotes the concentration giving half of the maximal effect. A high value points to weaker potency. In assay [6], B2 registered a Bmax of 293000 and an EC50 of 0.0774 µM. Also, the “Median RL1-H of Expressing Singlets” value in assay [7] was found to be 218000. Further, in assay [8], the “MFI Ratio” value amounted to 946. Moreover, the “MFI Ratio” value in [9] was found to be 946. In addition, the Subtraction in assay [10] is 217000.

B3: GLP1R-221-033 (antibody, V domains shown)
VH: B1 VH with T28S, N30S, Y53H, E58K, D110E, E116D
VL: B2 VL with S31N, N32E, I34V, D53N, P56V, A57S, G90A, S97N, E100V
notes: IgG
In [1], B3 gave a Bmax of 167000 and an EC50 of 0.00904 µM. Besides, the “Median RL1-H of Expressing Singlets” value in [2] came to 240000. The “MFI Ratio” value in assay [3] is 1020. Moreover, in assay [4], the “MFI Ratio” value came to 1020. The Subtraction in assay [5] turned out to be 240000.

B4: GLP1R-221-009 (antibody, V domains shown)
VH: B1 VH with T28I, N30S, A33G, Y53D, D54E, R55G, E58K, D110A
VL: B2 VL with S31N, N32Q, I34V, N52D, D53H, A57S
notes: IgG
In assay [1], B4 came in with a Bmax of 215000 and an EC50 of 0.0125 µM. Moreover, in assay [2], the “Median RL1-H of Expressing Singlets” value was found to be 221000. In addition, the “MFI Ratio” value in assay [3] was found to be 1120. In addition, the “MFI Ratio” value in assay [4] is 1120. In addition, in [5], the Subtraction came out at 220000.

B5: GLP1R-221-034 (antibody, V domains shown)
VH: B1 VH with T28P, N30S, A33G, Y53H, E58K, D110E, A114V
VL: QSVLTQPPSVSAAPGQKVTISCSGSSSNIGNNPVSWYQQLPGTAPKLLIYENDNRPSGIPDRFSGSKSGTSATLGITGLQTGDEADYYCATWDRGLSTGVFGGGTKLTVL
notes: IgG
In assay [1], B5 yielded a Bmax of 933000. The “Median RL1-H of Expressing Singlets” value in [2] was 223000. The “MFI Ratio” value in [3] and in assay [4] was 711 each time. Moreover, the Subtraction in assay [5] amounted to 223000.

B6: GLP1R-222-014 (antibody, V domains shown)
VH: B1 VH with T28A, N30S, A33G, A49S, V50F, R55E, E58K, S85N, D110E, G111W
VL: B1 VL with T25S, T26S, A30G, N32H, F33D, H52N, P56H, A100V
notes: IgG
For the molecule B6, in assay [6], the Bmax was 213000 and the EC50 was 0.0343 µM. In addition, in [7], the “Median RL1-H of Expressing Singlets” value was determined as 237000. In addition, in [8], the “MFI Ratio” value stood at 794. In addition, the “MFI Ratio” value in [9] was found to be 794. Also, the Subtraction in assay [10] came out at 237000.

B7: GLP1R-221-075 (antibody, V domains shown)
VH: B1 VH with N30S, A33P, R55E, S56T, E58K, D110E, R125I
VL: B2 VL with S26G, S31N, Y33D, I34V, V98N, G99Y, E100V
notes: IgG
Turning to B7, in assay [1], the Bmax amounted to 213000. Besides, the “Median RL1-H of Expressing Singlets” value in [2] stood at 242000. The “MFI Ratio” value in [3] and in [4] was 1170 throughout. Also, the Subtraction in [5] amounted to 242000.

B8: GLP1R-221-066 (antibody, V domains shown)
VH: B1 VH with D110E, A114I
VL: B5 VL with P33Y, V34L, D53N, N54K, A90G, T91I, G95S, T98A, G99W
notes: IgG
As for B8, the Bmax in [1] was 172000. Besides, it took 0.0574 µM to reach a half-maximal effect in assay [1] (EC50). The “Median RL1-H of Expressing Singlets” value in assay [2] stood at 223000. The “MFI Ratio” value in [3] and in assay [4] was 928 in each case. Moreover, the Subtraction in assay [5] is 222000.

B9: GLP1R-222-081 (antibody, V domains shown)
VH: B1 VH with N30D, M34L, V50L, R55A, S56G, E58K, D110E, R125F
VL: B2 VL with N32D, I34V, D53N, P56S, A57S, T94E, S97R, V98S, G99W, E100V
notes: IgG
Consider B9, for which the Bmax in [6] amounted to 194000. This molecule also came in with an EC50 in assay [6] of 0.0225 µM. For the same molecule, in assay [7], the “Median RL1-H of Expressing Singlets” value was 221000. For the same molecule, the “MFI Ratio” value in assay [8] and in assay [9] was 850 throughout. For the same molecule, the Subtraction in assay [10] was 221000.

B10: GLP1R-221-017 (antibody, V domains shown)
VH: B1 VH with N30S, N31D, A33G, M34V, V50F, R55E, E58K, D110E, G111Y
VL: B5 VL with N32T, P33Y, E51D, N52D, D53Y, N54K, R94A, G95T, S97N
notes: IgG
Take B10: in [1], the Bmax worked out at 250000 and a half-maximal effect (EC50) was put at 0.0276 µM. The “Median RL1-H of Expressing Singlets” value in assay [2] amounted to 241000. Moreover, the “MFI Ratio” value in [3] is 1480. The “MFI Ratio” value in assay [4] was 1480. For the same molecule, the Subtraction in [5] came to 240000.

B11: GLP1R-222-073 (antibody, V domains shown)
VH: B1 VH with N30R, N31D, A33G, V50F, S52R, R55E, S56I, E58K, D110E, K123G
VL: B5 VL with S26G, P33D, E51D, D53N, N54K, P56A, A90G, L96P, S97N
notes: IgG
On to B11, for which, in [6], the Bmax is 151000 and the EC50 came to 0.0131 µM. Further, the “Median RL1-H of Expressing Singlets” value in assay [7] was determined as 225000. In addition, the “MFI Ratio” value in assay [8] amounted to 984. Moreover, in [9], the “MFI Ratio” value is 984. For the same molecule, in [10], the Subtraction stood at 225000.

B12: GLP1R-222-023 (antibody, V domains shown)
VH: B1 VH with T28S, N30S, N31D, A33G, V50F, R55A, S56N, E58K, D110E, G111W
VL: B5 VL with P33D, D53T, N54K, A90G, R94A
notes: IgG
As for B12, the Bmax in assay [6] was determined as 220000. The same molecule came in with an EC50 in assay [6] of 0.0184 µM. For the same molecule, the “Median RL1-H of Expressing Singlets” value in assay [7] worked out at 241000. Besides, the “MFI Ratio” value in [8] and in [9] was 778 throughout. The Subtraction in [10] came out at 241000.

B13: GLP1R-221-084 (antibody, V domains shown)
VH: B1 VH with T28A, N30S, A33G, Y53S, R55E, S56N, E58K, D110E, G111M
VL: B2 VL with G30A, S31D, I34V, D51E, D53N, K54R, A57S, T94V, E100M
notes: IgG
In assay [1], B13 had a Bmax of 287000 and an EC50 of 0.00409 µM. The “Median RL1-H of Expressing Singlets” value in assay [2] came to 221000. In addition, the “MFI Ratio” value in [3] was determined as 1070. Moreover, the “MFI Ratio” value in assay [4] turned out to be 1070. In addition, the Subtraction in [5] was determined as 221000.

B14: GLP1R-222-012 (antibody, V domains shown)
VH: B1 VH with A33G, Y53D, D54E, R55G, E58K, D110V
VL: B2 VL with S31N, Y33D, I34V, N52D, A57S
notes: IgG
In [6], B14 gave a Bmax of 234000 and an EC50 of 0.0231 µM. In addition, the “Median RL1-H of Expressing Singlets” value in assay [7] was 225000. Besides, the “MFI Ratio” value in [8] was 775. Besides, the “MFI Ratio” value in assay [9] stood at 775. Moreover, the Subtraction in assay [10] came to 225000.

B15: GLP1R-221-076 (antibody, V domains shown)
VH: B1 VH with A33P, R55E, S56T, E58K, D110E, R125I
VL: QSVLTQPPSVSAAPGQKVTISCSGTSSNIGNNDVSWYQQLPGTAPKLLIYENNKRHSGIPDRFSGSKSGTSATLGITGLQTGDEADYYCLTWDHSLTAYVFGGGTKLTVL
notes: IgG
On to B15, for which, in [1], the Bmax was 799000. The “Median RL1-H of Expressing Singlets” value in [2] is 236000. Also, the “MFI Ratio” value in [3] and in assay [4] was 747 each time. In addition, in [5], the Subtraction was 236000.

B16: GLP1R-221-092 (antibody, V domains shown)
VH: B1 VH with T28I, A33G, V50F, D54G, R55G, E58K, D110E, A114V
VL: B1 VL with H52N, S57P, A98V, A100M
notes: IgG
Regarding B16, in assay [1], the Bmax is 145000 and the EC50 is 0.0133 µM. For the same molecule, the “Median RL1-H of Expressing Singlets” value in [2] worked out at 232000. In assay [3], the “MFI Ratio” value turned out to be 712. Moreover, in assay [4], the “MFI Ratio” value was determined as 712. In [5], the Subtraction was determined as 232000.
